PMC4610628 (Immunology, 2015)
Values joined by “and” are separate entries in the source; they are usually repeats but may differ in a detail not shown here. Identical values can stand only once. Square brackets hold non-standard residues; d marks the D form. Ends that are not written are not given here. * marks the point of attachment. Biotin = O=C1N[C@H]2[C@H](CS[C@H]2CCCCC(=O)*)N1; pY = N[C@@H](Cc1ccc(OP(=O)(O)O)cc1)C(=O)O

T1: SHIP SH2 domain from SHIP-1, recombinant human (human, UniProt Q92835 5-101)
T1 construct: SH2 domain of the inositol phosphatase SHIP-1, human; source: recombinant, produced in-house and purified on the day of the experiment
T1 sequence (looked up): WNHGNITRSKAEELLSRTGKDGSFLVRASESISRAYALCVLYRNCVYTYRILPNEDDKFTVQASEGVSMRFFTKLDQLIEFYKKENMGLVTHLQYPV

T2: signalling lymphocyte activation molecule-associated protein (SAP), full length, recombinant human (human, UniProt O60880 1-128)
T2 construct: SAP (SH2D1A), human, full length recombinant protein; called 'soluble monomeric recombinant human SAP' in the results; also called SH2D1A; source: recombinant, produced in-house and purified on the day of the experiment
T2 sequence (looked up): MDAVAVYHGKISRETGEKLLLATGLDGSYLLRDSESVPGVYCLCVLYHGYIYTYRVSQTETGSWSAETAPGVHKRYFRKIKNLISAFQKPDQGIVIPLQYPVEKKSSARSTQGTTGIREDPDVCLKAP

B1: signalling lymphocyte activation molecule-associated protein (SAP), full length, recombinant human (natural protein)
chain: T2 sequence (looked up)
B2: CD244-ITSM1 phosphopeptide (peptide)
peptide: Biotin-EFLTI[pY]EDVKD
notes: CD244 (2B4, SLAMF4), human, ITSM1; source: synthetic peptide; bought: Peptide Protein Research Ltd
B3: CD229M phosphopeptide (CD229 ITSM1, Met602 variant) (peptide)
peptide: Biotin-GENTM[pY]AQVFN
notes: CD229 (Ly9, SLAMF3), human, first (membrane proximal) ITSM, natural variant Met602 of SNP rs509749; also called CD229 Met602 ITSM; TMpYAQV; source: synthetic peptide; bought: Peptide Protein Research Ltd
B4: CD229V phosphopeptide (CD229 ITSM1, Val602 variant) (peptide)
peptide: Biotin-GENTV[pY]AQVFN
notes: CD229 (Ly9, SLAMF3), human, first (membrane proximal) ITSM, natural variant Val602 of SNP rs509749; also called CD229 Val602 ITSM; TVpYAQV; source: synthetic peptide; bought: Peptide Protein Research Ltd
B5: FcγRIIb-ITIM phosphopeptide (peptide)
peptide: Biotin-ADKVGAENTIT[pY]SLLMHPDA
notes: FcγRIIb, human, ITIM; source: synthetic peptide; bought: Peptide Protein Research Ltd
B6: CD244-ITSM2 phosphopeptide (peptide)
peptide: Biotin-GGSTI[pY]SMIQS
notes: CD244 (2B4, SLAMF4), human, ITSM2; source: synthetic peptide; bought: Peptide Protein Research Ltd

What was measured:
[1] = target: CD229 more distal ITSM phosphopeptide (TIpYCS) (human); experiment: SPR; data not shown; SAP on tyrosine phosphorylated CD229 distal ITSM peptide, 37°C, n = 3
[2] = target: T1, SHIP SH2 domain from SHIP-1, …; experiment: SPR; BIAcore 3000; biotinylated phosphopeptides immobilised on a streptavidin-coated CM5 chip (~30 RU), purified recombinant protein passed over; 37°; 10 mM HEPES pH 7·4, 150 mM KCl, 10 mM EDTA, 0·005% Tween 20; equilibrium data, one-site binding curve; details: both partners purified
[3] = target: T2, signalling lymphocyte activation …; experiment: as above; details: both partners purified

Binder	Kd [1] [µM]	Kd [2]	Kd [3]
B1	0.1		
B2		25 µM	
B3		23 to 92 µM and > 50 µM	1.7 µM and 1.5 to 2 µM
B4		100 µM and 82 to 110 µM	3.4 µM and 2.8 µM and 4.4 µM
B5		0.36 µM	
B6		2.4 µM	
